In patent US20040053296A1 (TAKARA BIO, published 2004):

Tests used:
[1] = target: T1, mucin box-deleted mutant of rat neutral ceramidase (delta-mucin CDase), C-terminal myc tag (rat, UniProt Q91XT9 1-761); assay: lectin blot with HRP-labeled PNA lectin after immunoprecipitation from HEK293 lysate
T1 construct: Expressed in HEK293 cells, immunoprecipitated and blotted; also called Δmucin; Δmucin CDase; not shown: C-terminal Myc-His tag from vector pcDNA3.1/Myc-his(+)
Experimental: CDase was immunoprecipitated from the cell lysate of HEK293 cells prepared in Example 2, in which Δmucin or wild-type CDase was expressed, by using an anti-CDase antibody. A 100-fold dilution of anti-CDase was coupled with 10 μl of protein A-agarose (trade name, manufactured by SANTA CRUZ) in 100 μl of a reaction buffer (10 mM Tris-HCl, pH 7.5, containing 150 mM NaCl, 1% (v/v) Tritonm X-100 and 0.1% (w/v) BSA) at 4° C. for 2 hours. The product obtained was washed five times with the above reaction buffer. Thereafter, this product was mixed with a CDase sample, obtained by previously heating at 100° C. for 5 minutes in SDS sample buffer [20 mM Tris-HCl, pH 7.5, containing 1% (w/v) SDS and 1% (v/v) 2-mercaptoethanol], and incubated at 4° C. for 18 hours with gentle stirring. Subsequently, the immunoprecipitate was sedimented by centrifugation, washed five times with the above reaction buffer, suspended in 20 μl of the SDS sample buffer, and heated at 100° C. for 5 minutes. The resulting product was subjected to SDS-PAGE and Western blotting as described in Example 2. The PVDF membrane was stained with an anti-Myc antibody or an HRP-labeled PNA lectin. PNA (peanut agglutinin) lectin is a lectin capable of specifically recognizing and binding to the Galβ1,3GalNAc sequence of O-glycan.

[2] = target: T2, 94-kDa mouse neutral ceramidase from the soluble fraction of the liver, lacking the mucin box (mouse, UniProt Q9JHE3 75-756, limits assumed); assay: lectin blot with HRP-labeled PNA lectin after immunoprecipitation from mouse liver soluble fraction
T2 construct: The whole entry is named here, and the true chain is shorter at the N-terminus; also called 94-kDa CDase; enzyme in the soluble fraction of the liver
T2 sequence (Q9JHE3 75-756 limits assumed): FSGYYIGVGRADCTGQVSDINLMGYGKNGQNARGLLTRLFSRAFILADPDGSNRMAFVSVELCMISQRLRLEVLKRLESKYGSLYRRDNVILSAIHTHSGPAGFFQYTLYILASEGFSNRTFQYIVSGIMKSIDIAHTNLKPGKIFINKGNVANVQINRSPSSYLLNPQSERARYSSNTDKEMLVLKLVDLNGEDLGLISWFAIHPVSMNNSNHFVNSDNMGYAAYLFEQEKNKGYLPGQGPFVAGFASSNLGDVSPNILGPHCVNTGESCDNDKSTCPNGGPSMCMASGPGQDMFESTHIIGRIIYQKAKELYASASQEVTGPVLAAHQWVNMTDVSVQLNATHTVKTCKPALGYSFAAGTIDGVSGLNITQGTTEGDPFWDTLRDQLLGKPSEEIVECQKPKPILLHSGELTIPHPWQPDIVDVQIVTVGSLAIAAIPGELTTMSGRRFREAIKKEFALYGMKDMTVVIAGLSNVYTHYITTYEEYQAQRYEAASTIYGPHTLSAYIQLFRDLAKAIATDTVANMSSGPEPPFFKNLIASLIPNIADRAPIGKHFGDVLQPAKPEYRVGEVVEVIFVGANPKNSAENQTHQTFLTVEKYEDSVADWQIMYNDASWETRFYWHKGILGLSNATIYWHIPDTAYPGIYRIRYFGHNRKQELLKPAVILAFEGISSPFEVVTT

T1 sequence (Q91XT9 other isoform, or with tags, fused parts or gaps mutant): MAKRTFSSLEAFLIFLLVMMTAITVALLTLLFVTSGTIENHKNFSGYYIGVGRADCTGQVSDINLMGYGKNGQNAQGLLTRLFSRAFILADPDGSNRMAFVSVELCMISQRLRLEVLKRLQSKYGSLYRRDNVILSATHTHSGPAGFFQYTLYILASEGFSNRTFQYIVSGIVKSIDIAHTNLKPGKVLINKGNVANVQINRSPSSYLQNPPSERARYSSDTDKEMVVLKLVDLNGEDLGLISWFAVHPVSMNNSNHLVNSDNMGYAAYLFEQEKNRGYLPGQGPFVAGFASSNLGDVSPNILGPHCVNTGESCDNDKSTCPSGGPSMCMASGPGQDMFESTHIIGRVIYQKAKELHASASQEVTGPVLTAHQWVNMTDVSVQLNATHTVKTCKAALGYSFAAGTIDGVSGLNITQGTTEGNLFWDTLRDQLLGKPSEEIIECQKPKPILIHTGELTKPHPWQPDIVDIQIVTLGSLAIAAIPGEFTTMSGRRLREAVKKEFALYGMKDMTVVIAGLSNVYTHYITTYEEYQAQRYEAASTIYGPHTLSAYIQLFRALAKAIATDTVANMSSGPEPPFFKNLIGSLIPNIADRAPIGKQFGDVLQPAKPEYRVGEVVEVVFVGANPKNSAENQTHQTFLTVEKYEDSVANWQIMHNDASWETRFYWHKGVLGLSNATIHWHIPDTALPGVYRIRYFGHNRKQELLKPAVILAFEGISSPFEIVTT

binding result [1]: no binding
binding result [2]: no binding
B1: HRP-labeled PNA lectin (peanut agglutinin) (other, UniProt P02872 24-259, looked up)
chain: AETVSFNFNSFSEGNPAINFQGDVTVLSNGNIQLTNLNKVNSVGRVLYAMPVRIWSSATGNVASFLTSFSFEMKDIKDYDPADGIIFFIAPEDTQIPAGSIGGGTLGVSDTKGAGHFVGVEFDTYSNSEYNDPPTDHVGIDVNSVDSVKTVPWNSVSGAVVKVTVIYDSSTKTLSVAVTNDNGDITTIAQVVDLKAKLPERVKFGFSASGSLGGRQIHLIRSWSFTSTLITTTRRS
modifications: HRP-labeled
notes: Lectin used as a blotting reagent; also called peanut lectin
